Changes are numbered by the printed parent chain. Names and notes keep the numbering of the source.
B1: pomolog hcY57A (POM1 scFv, heavy chain Y57A) (scFv, V domains shown)
VH: QVQLQQSGTELVMPGASVKMSCKASGYTFTDYWMHWVKQRPGQGLEWIGSIDPSDSATSHNEKFKGKATLTVDESSSTAYMQLSSLTSEDSAVYFCSRSGYGYYAMEYWGQGTSVTVSS
VL: DIVLTQSPAILSVSPGERVSFSCRASQNIGTSIHWYQQRTNESPRLIIKYASESISGIPSRFSGSGSGTDFTLSINSVESEDIADYYCQQSNTWPYTFGGGTKLELK
B2: pomolog hcY101A (POM1 scFv, heavy chain Y101A) (scFv, V domains shown)
VH: B1 VH with A57Y, Y101A
VL: B1 VL
B3: pomolog hcY104A (POM1 scFv, heavy chain Y104A) (scFv, V domains shown)
VH: B1 VH with A57Y, Y104A
VL: B1 VL
B4: pomolog lcS32A (POM1 scFv, light chain S32A) (scFv, V domains shown)
VH: B1 VH with A57Y
VL: B1 VL with S32A
B5: pomolog lcY50A (POM1 scFv, light chain Y50A) (scFv, V domains shown)
VH: B1 VH with A57Y
VL: B1 VL with Y50A
B6: pomolog lcS91A (POM1 scFv, light chain S91A) (scFv, V domains shown)
VH: B1 VH with A57Y
VL: B1 VL with S91A
B7: pomolog lcW94A (POM1 scFv, light chain W94A) (scFv, V domains shown)
VH: B1 VH with A57Y
VL: B1 VL with W94A
B8: pomolog lcY96A (POM1 scFv, light chain Y96A) (scFv, V domains shown)
VH: B1 VH with A57Y
VL: B1 VL with Y96A
B9: pomolog hcD52A (POM1 scFv, heavy chain D52A) (scFv, V domains shown)
VH: B1 VH with D52A, A57Y
VL: B1 VL
B10: pomolog hcD55A (POM1 scFv, heavy chain D55A) (scFv, V domains shown)
VH: B1 VH with D55A, A57Y
VL: B1 VL
B11:  (antibody, V domains shown)
VH: B1 VH with A57Y, Y104A
VL: B1 VL
notes: also called holo-Y104A; hcY104A IgG holoantibody
B12: POM1 scFv pomolog hcY101A (scFv, V domains shown)
VH: B1 VH with A57Y, Y101A
VL: B1 VL
B13: POM1 scFv pomolog hcY104A (scFv, V domains shown)
VH: B1 VH with A57Y, Y104A
VL: B1 VL
B14: POM1 scFv pomolog lcY50A (scFv, V domains shown)
VH: B1 VH with A57Y
VL: B1 VL with Y50A
B15: POM1 scFv pomolog lcW94A (scFv, V domains shown)
VH: B1 VH with A57Y
VL: B1 VL with W94A
B16: POM1 scFv pomolog lcS91A (scFv, V domains shown)
VH: B1 VH with A57Y
VL: B1 VL with S91A
B17: POM1 scFv pomolog hcD55A (scFv, V domains shown)
VH: B1 VH with D55A, A57Y
VL: B1 VL
B18: POM1 scFv pomolog lcY96A (scFv, V domains shown)
VH: B1 VH with A57Y
VL: B1 VL with Y96A
B19: POM1 scFv pomolog hcY57A (scFv, V domains shown)
VH: B1 VH
VL: B1 VL
B20: POM1 scFv pomolog lcS32A (scFv, V domains shown)
VH: B1 VH with A57Y
VL: B1 VL with S32A
B21: POM1 scFv pomolog hcD52A (scFv, V domains shown)
VH: B1 VH with D52A, A57Y
VL: B1 VL

target: recombinant mouse prion protein immobilised for SPR (mPrP) (Mus musculus, UniProt P04925); assay: SPR; conditions: both partners purified

Going from B1 to B2, the Kd falls from 406 nM to 11 nM (37-fold).

B3 and B4 are within 1.5-fold of each other in Kd: 8.8 nM for the first, 10 nM for the second.

Going from B5 to B6, the Kd rises from 313 nM to 1430 nM (4.6-fold).

Going from B7 to B8, the Kd falls from 201 nM to 123 nM (1.6-fold). The second binds more tightly here.

First: B9
Second: B10
The Kd of the first is 3.6-fold lower: 103 nM for the first, 372 nM for the second. The first binds more tightly here.

First: B1
Second: B2
The koff of the first is 44-fold higher: 0.031 s⁻¹ for the first, 0.00071 s⁻¹ for the second.

First: B3
Second: B4
The koff of the first is 2.8-fold lower: 0.00021 s⁻¹ for the first, 0.00059 s⁻¹ for the second.

Going from B5 to B6, the koff rises from 0.0082 s⁻¹ to 0.018 s⁻¹ (2.2-fold).

First: B7
Second: B8
The koff of the first is 3.6-fold higher: 0.027 s⁻¹ for the first, 0.0074 s⁻¹ for the second.

B9 and B10 are within 1.5-fold of each other in koff: 0.046 s⁻¹ for the first, 0.037 s⁻¹ for the second.

B1 and B2 are within 1.5-fold of each other in kon: 77000 M⁻¹ s⁻¹ for the first, 63000 M⁻¹ s⁻¹ for the second.

Compared with B3, B4 is 1.8-fold higher in kon: 36000 M⁻¹ s⁻¹ for the first, 64000 M⁻¹ s⁻¹ for the second.

Going from B5 to B6, the kon falls from 57000 M⁻¹ s⁻¹ to 13000 M⁻¹ s⁻¹ (4.4-fold).

Compared with B7, B8 is 5-fold lower in kon: 310000 M⁻¹ s⁻¹ for the first, 62000 M⁻¹ s⁻¹ for the second.

Compared with B9, B10 is 3.3-fold lower in kon: 330000 M⁻¹ s⁻¹ for the first, 100000 M⁻¹ s⁻¹ for the second.

target: recombinant mouse PrP flexible tail fragment (rmPrP23-110) (Mus musculus, UniProt P04925); assay: ELISA; conditions: both partners purified

B11: no binding.

target: globular domain fragment of recombinant human PrP (rhPrP121-230) (Homo sapiens, UniProt P04156); assay: ELISA; conditions: both partners purified

B11: binds.

target: mPrP immobilized on the SPR sensor chip (rmPrP) (Mus musculus, UniProt P04925); assay: SPR; conditions: both partners purified

B12 and B13 are within 1.5-fold of each other in Kd: 11.5 nM for the first, 8.79 nM for the second.

First: B14
Second: B15
The Kd of the first is 1.6-fold higher: 313 nM for the first, 201 nM for the second. The second binds more tightly here.

Going from B16 to B17, the Kd falls from 1430 nM to 372 nM (3.8-fold).

Going from B18 to B19, the Kd rises from 123 nM to 406 nM (3.3-fold).

Compared with B20, B21 is 10-fold higher in Kd: 9.98 nM for the first, 103 nM for the second. The first binds more tightly here.

target: full-length, recombinant mouse prion protein (rmPrP23-231) (Mus musculus, UniProt P04925); assay: FRET or BRET; conditions: both partners purified

Going from B12 to B13, the Kd rises from 1.5 nM to 26 nM (17-fold). The first binds more tightly here.

B14 and B15 are within 1.5-fold of each other in Kd: 63.4 nM for the first, 73.1 nM for the second.

B16 and B17 are within 1.5-fold of each other in Kd: 92.3 nM for the first, 110 nM for the second.

Going from B18 to B19, the Kd rises from 138 nM to 225 nM (1.6-fold). The first binds more tightly here.

First: B20
Second: B21
The Kd of the first is 1.9-fold lower: 7.3 nM for the first, 14.2 nM for the second.

Source: article PMC9371974 (Nature Structural & Molecular Biology, 2022)
